Substrate in the series: OCc1ccccc1
The series is described as follows: steady-state kinetics. The format is biochemical, Equus caballus. The conditions noted are these: NAD+; catalytic zinc; 25.0 °C.

As a reminder, the Km is the concentration of substrate that gives half-maximal velocity.

B1: Horse liver alcohol dehydrogenase (ADH), E isoenzyme (Equus caballus; V208A) (protein)
chain: STAGKVIKCKAAVLWEEKKPFSIEEVEVAPPKAHEVRIKMVATGICRSDDHVVSGTLVTPLPVIAGHEAAGIVESIGEGVTTVRPGDKVIPLFTPQCGKCRVCKHPEGNFCLKNDLSMPRGTMQDGTSRFTCRGKPIHHFLGTSTFSQYTVVDEISVAKIDAASPLEKVCLIGCGFSTGYGSAVKVAKVTQGSTCAVFGLGGVGLSAIMGCKAAGAARIIGVDINKDKFAKAKEVGATECVNPQDYKKPIQEVLTEMSNGGVDFSFEVIGRLDTMVTALSCCQEAYGVSVIVGVPPDSQNLSMNPMLLLSGRTWKGAIFGGFKSKDSVPKLVADFMAKKFALDPLITHVLPFEKINEGFDLLRSGESIRTILTF
Regarding B1, the Km stood at 13 ± 1 µM.

B2: Horse liver alcohol dehydrogenase (ADH), E isoenzyme (Equus caballus) (protein)
chain: STAGKVIKCKAAVLWEEKKPFSIEEVEVAPPKAHEVRIKMVATGICRSDDHVVSGTLVTPLPVIAGHEAAGIVESIGEGVTTVRPGDKVIPLFTPQCGKCRVCKHPEGNFCLKNDLSMPRGTMQDGTSRFTCRGKPIHHFLGTSTFSQYTVVDEISVAKIDAASPLEKVCLIGCGFSTGYGSAVKVAKVTQGSTCAVFGLGGVGLSVIMGCKAAGAARIIGVDINKDKFAKAKEVGATECVNPQDYKKPIQEVLTEMSNGGVDFSFEVIGRLDTMVTALSCCQEAYGVSVIVGVPPDSQNLSMNPMLLLSGRTWKGAIFGGFKSKDSVPKLVADFMAKKFALDPLITHVLPFEKINEGFDLLRSGESIRTILTF
For the protein B2, the Km stood at 14 ± 1 µM.

(Values after article PMC3969020.)
